In US20210403527A1 (Regeneron, published 2021):
Where a chain is given by its changes, count along the chain named.

Key:
Test in all cases: cell-based or functional assay
[1] = target: HLA-A2/NY-ESO-1 (157-165) complex on cells (human)
[2] = target: single chain HLA-A2 presenting an NY-ESO-1 (157-165) peptide, overexpressed on IM9 cells
[3] = target: HLA-A2/NY-ESO-1 (157-165) complex on cells (human); remark: listed apart in the source

B1: TCR063 (TCR, V domains shown)
V domain 1: QKEVEQNSGPLSVPEGAIASLNCTYSDRGSQSFFWYRQYSGKSPELIMSIYSNGDKEDGRFTAQLNKASQYVSLLIRDSQPSDSATYLCAVNILASGGSYIPTFGRGTSLIVHP
V domain 2: ETGVTQTPRHLVMGMTNKKSLKCEQHLGHNAMYWYKQSAKKPLELMFVYNFKEQTENNSVPSRFSPECPNSSHLFLHLHTLQPEDSALYLCASSHGTGYNYGYTFGSGTRLTVV
[1]
  Signal to Noise (S/N) ratio (RLU to peptide pulsed APCs divided by RLU to non-pulsed APCs), AP-1 luciferase reporter T cells: 11.2 ratio

B2: TCR050 (TCR, V domains shown)
V domain 1: DAKTTQPNSMESNEEEPVHLPCNHSTISGTDYIHWYRQLPSQGPEYVIHGLTSNVNNRMASLAIAEDRKSSTLILHRATLRDAAVYYCILREGNNDMRFGAGTRLTVKP
V domain 2: NAGVTQTPKFRILKIGQSMTLQCAQDMNHNYMYWYRQDPGMGLKLIYYSVGAGITDKGEVPNGYNVSRSTTEYFPLRLELAAPSQTSVYFCASSWTDNQPQHFGDGTRLSIL
[1]
  Signal to Noise (S/N) ratio (RLU to peptide pulsed APCs divided by RLU to non-pulsed APCs), AP-1 luciferase reporter T cells: 15.5 ratio

B3: TCR188 (TCR, V domains shown)
V domain 1: DAKTTQPNSMESNEEEPVHLPCNHSTISGTDYIHWYRQLPSQGPEYVIHGLTSNVNNRMASLAIAEDRKSSTLILHRATLRDAAVYYCILNTGTASKLTFGTGTRLQVTL
V domain 2: GAVVSQHPSWVICKSGTSVKIECRSLDFQATTMFWYRQFPKQSLMLMATSNEGSKATYEQGVEKDKFLINHASLTLSTLTVTSAHPEDSSFYICSAKEGTEAFFGQGTRLTVV
[1]
  Signal to Noise (S/N) ratio (RLU to peptide pulsed APCs divided by RLU to non-pulsed APCs), AP-1 luciferase reporter T cells: 5.1 ratio

B4: composite TCR 001 (human variable domains, mouse constant domains) (TCR, V domains shown)
V domain 1: DAKTTQPNSMESNEEEPVHLPCNHSTISGTDYIHWYRQLPSQGPEYVIHGLTSNVNNRMASLAIAEDRKSSTLILHRATLRDAAVYYCILRPDSWGKFQFGAGTQVVVTP
V domain 2: NAGVTQTPKFRILKIGQSMTLQCAQDMNHNYMYWYRQDPGMGLKLIYYSVGAGITDKGEVPNGYNVSRSTTEYFPLRLELAAPSQTSVYFCASSYSGGSPLHFGNGTRLTVTE
[2]
  percent cytotoxicity (calcein release), IM-9++ target cells, T cell:target cell ratio 0.78, Mean: 13.3%
  percent cytotoxicity (calcein release), IM-9++ target cells, T cell:target cell ratio 1.56, Mean: 25.6%
  percent cytotoxicity (calcein release), IM-9++ target cells, T cell:target cell ratio 3.125, Mean: 43.6%
  percent cytotoxicity (calcein release), IM-9++ target cells, T cell:target cell ratio 6.25, Mean: 57.3%
  percent cytotoxicity (calcein release), IM-9++ target cells, T cell:target cell ratio 12.5, Mean: 65.9%
  percent cytotoxicity (calcein release), IM-9++ target cells, T cell:target cell ratio 25, Mean: 68.7%
  percent cytotoxicity (calcein release), IM-9++ target cells, T cell:target cell ratio 50, Mean: 70%
[3]
  percent cytotoxicity (calcein release), IM-9 target cells, T cell:target cell ratio 0.78, Mean: 8.3%
  percent cytotoxicity (calcein release), IM-9 target cells, T cell:target cell ratio 1.56, Mean: 16.2%
  percent cytotoxicity (calcein release), IM-9 target cells, T cell:target cell ratio 3.125, Mean: 28.9%
  percent cytotoxicity (calcein release), IM-9 target cells, T cell:target cell ratio 6.25, Mean: 44.4%
  percent cytotoxicity (calcein release), IM-9 target cells, T cell:target cell ratio 12.5, Mean: 55.6%
  percent cytotoxicity (calcein release), IM-9 target cells, T cell:target cell ratio 25, Mean: 65.4%
  percent cytotoxicity (calcein release), IM-9 target cells, T cell:target cell ratio 50, Mean: 72.6%

B5: TCR001 (TCR, V domains shown)
V domain 1: B4 V domain 1
V domain 2: B2 V domain 2 with W95Y, T96S, D97G, N98G, Q99S, Q101L, D105N, S110T, I111V, L112T
[1]
  Signal to Noise (S/N) ratio (RLU to peptide pulsed APCs divided by RLU to non-pulsed APCs), AP-1 luciferase reporter T cells: 25.4 ratio
